Test results taken from IntAct's records for PubMed 12700764.

Target: mef2b_human MEF2B (UniProt Q02080)
Sequence (Q02080 whole entry): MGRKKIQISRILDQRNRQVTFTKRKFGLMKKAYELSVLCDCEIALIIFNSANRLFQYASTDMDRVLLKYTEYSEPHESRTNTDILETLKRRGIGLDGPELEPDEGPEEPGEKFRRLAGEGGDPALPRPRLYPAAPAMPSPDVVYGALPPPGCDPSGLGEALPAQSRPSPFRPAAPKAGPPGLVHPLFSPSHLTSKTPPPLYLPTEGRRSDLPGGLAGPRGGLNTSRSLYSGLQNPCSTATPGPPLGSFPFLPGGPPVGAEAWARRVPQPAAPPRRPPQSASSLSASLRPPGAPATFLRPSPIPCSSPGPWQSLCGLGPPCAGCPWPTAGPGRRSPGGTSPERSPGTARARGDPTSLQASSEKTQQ

Substance | effect of a mutation on the interaction
Calcineurin-binding protein cabin-1 (Homo sapiens), Q9Y6J0 I2176A | decreasing interaction strength
Calcineurin-binding protein cabin-1 (Homo sapiens), Q9Y6J0 Q2170A | with no effect
Calcineurin-binding protein cabin-1 (Homo sapiens), Q9Y6J0 L2172K | disrupting interaction strength
Calcineurin-binding protein cabin-1 (Homo sapiens), Q9Y6J0 L2172A | disrupting interaction strength
Calcineurin-binding protein cabin-1 (Homo sapiens), Q9Y6J0 Q2170W | with no effect
Calcineurin-binding protein cabin-1 (Homo sapiens), Q9Y6J0 L2172W | disrupting interaction strength
